Results published in US20020137213A1 (published 2002).

T1: coxsackie adenovirus receptor (CAR), human, on HeLa cells (human, UniProt P78310 20-365)
T1 sequence: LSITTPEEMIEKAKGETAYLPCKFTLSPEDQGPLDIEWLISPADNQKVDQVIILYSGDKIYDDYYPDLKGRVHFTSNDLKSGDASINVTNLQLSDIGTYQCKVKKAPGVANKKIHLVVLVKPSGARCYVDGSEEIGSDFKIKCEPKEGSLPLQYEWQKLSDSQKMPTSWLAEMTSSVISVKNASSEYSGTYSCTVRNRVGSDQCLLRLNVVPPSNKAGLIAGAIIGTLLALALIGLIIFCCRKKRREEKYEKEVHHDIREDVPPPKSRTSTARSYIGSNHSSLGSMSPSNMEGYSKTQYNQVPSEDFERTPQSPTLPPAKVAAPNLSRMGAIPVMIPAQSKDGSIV

B1: wildtype Ad5 fiber protein (other)
chain: MKRARPSEDTFNPVYPYDTETGPPTVPFLTPPFVSPNGFQESPPGVLSLRLSEPLVTSNGMLALKMGNGLSLDEAGNLTSQNVTTVSPPLKKTKSNINLEISAPLTVTSEALTVAAAAPLMVAGNTLTMQSQAPLTVHDSKLSIATQGPLTVSEGKLALQTSGPLTTTDSSTLTITASPPLTTATGSLGIDLKEPIYTQNGKLGLKYGAPLHVTDDLNTLTVATGPGVTINNTSLQTKVTGALGFDSQGNMQLNVAGGLRIDSQNRRLILDVSYPFDAQNQLNLRLGQGPLFINSAHNLDINYNKGLYLFTASNNSKKLEVNLSTAKGLMFDATAIAINAGDGLEFGSPNAPNTNPLKTKIGHGLEFDSNKAMVPKLGTGLSFDSTGAITVGNKNNDKLTLWTTPAPSPNCRLNAEKDAKLTLVLTKCGSQILATVSVLAVKGSLAPISGTVQSAHLIIRFDENGVLLNNSFLDPEYWNFRNGDLTEGTAYTNAVGFMPNLSAYPKSHGKTAKSNIVSQVYLNGDKTKPVTLTITLNGTQETGDTTPSAYSMSFSWDWSGHNYINEIFATSSYTFSYIAQE
B2: KO4+5 mutant Ad5 fiber protein (ΔG509, K510, ΔG538, T539) (other)
chain: MKRARPSEDTFNPVYPYDTETGPPTVPFLTPPFVSPNGFQESPPGVLSLRLSEPLVTSNGMLALKMGNGLSLDEAGNLTSQNVTTVSPPLKKTKSNINLEISAPLTVTSEALTVAAAAPLMVAGNTLTMQSQAPLTVHDSKLSIATQGPLTVSEGKLALQTSGPLTTTDSSTLTITASPPLTTATGSLGIDLKEPIYTQNGKLGLKYGAPLHVTDDLNTLTVATGPGVTINNTSLQTKVTGALGFDSQGNMQLNVAGGLRIDSQNRRLILDVSYPFDAQNQLNLRLGQGPLFINSAHNLDINYNKGLYLFTASNNSKKLEVNLSTAKGLMFDATAIAINAGDGLEFGSPNAPNTNPLKTKIGHGLEFDSNKAMVPKLGTGLSFDSTGAITVGNKNNDKLTLWTTPAPSPNCRLNAEKDAKLTLVLTKCGSQILATVSVLAVKGSLAPISGTVQSAHLIIRFDENGVLLNNSFLDPEYWNFRNGDLTEGTAYTNAVGFMPNLSAYPKSHTAKSNIVSQVYLNGDKTKPVTLTITLNQETGDTTPSAYSMSFSWDWSGHNYINEIFATSSYTFSYIAQE

The molecules below were run against T1, coxsackie adenovirus receptor (CAR), … (assay: cell-based or functional assay).
B1 was tested, and the “Mean % wt βgal activity, transduction of Hela cells” value was 100 % wt. B2 was tested, and the “Mean % wt βgal activity, transduction of Hela cells” value was 91.1 % wt.

What follows are molecules tested against coxsackie adenovirus receptor (CAR), human, on HeLa cells (human) (UniProt P78310) (assay: cell-based or functional assay).
Work on “KO2 mutant Ad5 fiber protein (ΔV441, K442) (from UniProt P11818 1-581)” yielded a Mean % wt βgal activity, transduction of Hela cells of 0.6 % wt, a Representative avg βgal activity (RLU/ug protein), transduction of Hela cells at 1000 particles per cell (RLU/ug protein) of 3320 and a decrease in transduction efficiency, Hela cells greater than 160 fold. It also gave a fold reduction of β-galactosidase activity against wildtype fiber, Hela cells of 167 fold. Work on “KO10 mutant Ad5 fiber protein (P505A) (from UniProt P11818 1-581)” yielded a Mean % wt βgal activity, transduction of Hela cells of 79.6 % wt and a Representative avg βgal activity (RLU/ug protein), transduction of Hela cells at 1000 particles per cell (RLU/ug protein) of 447000. Molecule “KO11 mutant Ad5 fiber protein (Δ404-581, knob replaced by GCN4 isoleucine 31 amino acid peptide) (from UniProt P11818 1-403)” has a Mean % wt βgal activity, transduction of Hela cells of 0.8 % wt, a Representative avg βgal activity (RLU/ug protein), transduction of Hela cells at 1000 particles per cell (RLU/ug protein) of 4520 and a fold reduction of β-galactosidase activity against wildtype fiber, Hela cells of 125 fold. Molecule “KO1 mutant Ad5 fiber protein (S408E, P409A) (from UniProt P11818 1-581)” has a Mean % wt βgal activity, transduction of Hela cells of 1.4 % wt, a Representative avg βgal activity (RLU/ug protein), transduction of Hela cells at 1000 particles per cell (RLU/ug protein) of 7620 and a fold reduction of β-galactosidase activity against wildtype fiber, Hela cells of 70 fold. For “KO1+2 mutant Ad5 fiber protein (S408E, P409A, ΔV441, K442) (from UniProt P11818 1-581)”, the Mean % wt βgal activity, transduction of Hela cells was 0.1 % wt, the Representative avg βgal activity (RLU/ug protein), transduction of Hela cells at 1000 particles per cell (RLU/ug protein) was 472 and the fold reduction in fiber-mediated gene transfer, Hela cells was 1000 fold. The fold reduction of β-galactosidase activity against wildtype fiber, Hela cells was 1000 fold. “KO5 mutant Ad5 fiber protein (ΔG538, T539) (from UniProt P11818 1-581)” was tested, and the Mean % wt βgal activity, transduction of Hela cells was 58.3 % wt and the Representative avg βgal activity (RLU/ug protein), transduction of Hela cells at 1000 particles per cell (RLU/ug protein) was 331000. With “KO8 mutant Ad5 fiber protein (N464T) (from UniProt P11818 1-581)” the Mean % wt βgal activity, transduction of Hela cells was 92.6 % wt and the Representative avg βgal activity (RLU/ug protein), transduction of Hela cells at 1000 particles per cell (RLU/ug protein) was 470000. For “KO2c mutant Ad5 fiber protein (V441A, K442A) (from UniProt P11818 1-581)”, the Mean % wt βgal activity, transduction of Hela cells was 8.5 % wt, the Representative avg βgal activity (RLU/ug protein), transduction of Hela cells at 1000 particles per cell (RLU/ug protein) was 53300 and the fold reduction in fiber-mediated gene transfer, Hela cells was 12 fold. “KO9 mutant Ad5 fiber protein (V466H) (from UniProt P11818 1-581)” was tested, and the Mean % wt βgal activity, transduction of Hela cells was 80.9 % wt and the Representative avg βgal activity (RLU/ug protein), transduction of Hela cells at 1000 particles per cell (RLU/ug protein) was 391000. In the case of “KO3 mutant Ad5 fiber protein (R460E) (from UniProt P11818 1-581)”, the Mean % wt βgal activity, transduction of Hela cells is reported as 63.3 % wt and the Representative avg βgal activity (RLU/ug protein), transduction of Hela cells at 1000 particles per cell (RLU/ug protein) is reported as 359000. Molecule “KO4 mutant Ad5 fiber protein (ΔG509, K510) (from UniProt P11818 1-581)” has a Mean % wt βgal activity, transduction of Hela cells of 38.2 % wt and a Representative avg βgal activity (RLU/ug protein), transduction of Hela cells at 1000 particles per cell (RLU/ug protein) of 213000. Molecule “KO2b mutant Ad5 fiber protein (ΔK442) (from UniProt P11818 1-581)” has a Mean % wt βgal activity, transduction of Hela cells of 8.3 % wt and a Representative avg βgal activity (RLU/ug protein), transduction of Hela cells at 1000 particles per cell (RLU/ug protein) of 44400. For “KO2a mutant Ad5 fiber protein (ΔV441) (from UniProt P11818 1-581)”, the Mean % wt βgal activity, transduction of Hela cells was 0.6 % wt, the Representative avg βgal activity (RLU/ug protein), transduction of Hela cells at 1000 particles per cell (RLU/ug protein) was 4000 and the decrease in transduction efficiency, Hela cells was greater than 160 fold. It also gave a fold reduction of β-galactosidase activity against wildtype fiber, Hela cells of 167 fold.
